{
  "source": "paper PMC10914600",
  "about": "“Synthesis of lipid-linked precursors of the bacterial cell wall is governed by a feedback control mechanism in Pseudomonas aeruginosa” (Nature Microbiology, 2024)",
  "proteins": {"B1": {"name": "E. coli MraY(T23P) (enzyme)", "chain": "MLVWLAEHLVKYYSGFNVFSYLPFRAIVSLLTALFISLWMGPRMIAHLQKLSFGQVVRNDGPESHFSKRGTPTMGGIMILTAIVISVLLWAYPSNPYVWCVLVVLVGYGVIGFVDDYRKVVRKDTKGLIARWKYFWMSVIALGVAFALYLAGKDTPATQLVVPFFKDVMPQLGLFYILLAYFVIVGTGNAVNLTDGLDGLAIMPTVFVAGGFALVAWATGNMNFASYLHIPYLRHAGELVIVCTAIVGAGLGFLWFNTYPAQVFMGDVGSLALGGALGIIAVLLRQEFLLVIMGGVFVVETLSVILQVGSFKLRGQRIFRMAPIHHHYELKGWPEPRVIVRFWIISLMLVLIGLATLKVR", "notes": "MraY of E. coli, integral membrane enzyme that forms lipid I; The methods name the plasmid pRSFDuetEcMraY-E_(ID21) without the T23P change; also called ^EcMraY(T23P); MraY of the YES(T23P) complex; source: E. coli ∆slyD BL21(DE3), co-expressed with protein E and SlyD, purified as the YES complex (DDM, NiNTA, SEC)"}},
  "target": "the molecule itself",
  "experiment": "cryo-EM structure; YES(T23P) complex (EcMraY(T23P), protein E, SlyD) co-expressed and purified in DDM; 5 mg/ml in 10 mM HEPES pH 7.5, 75 mM NaCl, 2% glycerol, 5 mM βME, 0.03% DDM, 1 mM E. coli total lipid extract; focused refinement of MraY alone after particle subtraction, final map 3.8 Å",
  "data": [
    {"protein": "B1", "values": [
      {"measurement": "stoichiometry N", "result": 2}
    ]}
  ]
}
